This note sets out measurements from patent US11123408B2, “Compositions and methods for treating nonsteroidal anti-inflammatory drug (NSAID) associated coagulopathy, thrombocytopenia, glanzmann's thrombasthenia, and/or thrombosis” (YALE UNIVERSITY, priority 2011, dated 2021).

The subject of series [1] is platelets of a patient donor with a mild platelet storage pool disorder. The experiment in a line: LTA in platelet rich plasma of a patient donor with a mild platelet storage pool disorder. Type of series: cell-based, human. The following applies: 50 nM NPP4; 2.5 μM ADP; without NPP4 approximately 40%. How it is done:
(§1) Platelet aggregation was determined by measuring the change in light transmittance of stirred PRP over time after addition of various agonists. Prior to each experiment the aggregometer was standardized to reflect 100% and 0% light transmittance with PPP and PRP, respectively, from the donor whose platelets were used in each specific experiment. 500 μL PRP was added to cuvettes containing a magnetic stir bar and allowed to pre-warm to 37° C. in the aggregometer wells for 3 minutes prior to initiating aggregation reactions which were then conducted at 37° C. Aggregation reactions were initiated by direct addition of agonists and/or enzymes to warmed, stirred PRP, and were monitored for an increase in light transmittance for 10 minutes. The increase in light transmittance is directly proportional to the amount of aggregation and is amplified and digitized into a computer (HP Compaq, Hewlett-Packard, Palo Alto, Calif.) with the AGGRO/LINK8 for Windows software (Chrono-Log Corporation, Havertown, Pa.) to generate aggregation curves. […] The platelet aggregometry experiments for all concentrations of MRS 2395 (including the 0 μM point) were conducted with the plasma adjusted to a final concentration of 10% DMSO to solubilize the inhibitor.
(§2) NPP4 rescues platelets exposed to NSAIDs. […]

The subject of series [2] is platelets exposed to NSAIDs. The experiment in a line: LTA in platelet-rich plasma from an individual who had consumed ibuprofen. Type of series: cell-based, human. The following applies: 20 nM NPP4; 3 μM ADP; donor took 800 mg ibuprofen 12 hours before. On the procedure:
as §1, §2

Series [3] is described as follows: Ap4A hydrolysis by NPP enzymes (linked malachite green assay, absorbance change at 259 nm, HPLC). Format: biochemical. How it is done:
NPP4 nucleotide substrates were identified by directly detecting the free phosphate (Pi) product using malachite green (ADP substrate) or by a linked hydrolysis assay with alkaline phosphatase combined with malachite green (lipid substrates and nucleotide substrates without terminal P1) to measure released Pi. 50 μM substrate P1 equivalents (e.g. 25 μM ADP) were treated with 50 nM NPP4 for 1 hr 37 min (lipids) or 3 hr 15 min (all other substrates). For substrates without terminal phosphates, 10 units of calf intestinal alkaline phosphatase (M0290S, 10,000 units/mL, New England Biolabs, Ipswich, Mass.) was added for a final reaction volume of 50 μL. 100 μL of malachite green (BIOMOL GREEN™, Enzo Life Sciences, Plymouth Meeting, Pa.) was added to quench the reactions. The amount of phosphate released was measured by absorbance at 620 nm by a Biotek Synergy Mx plate reader (Winooski, Vt.) in 96-well plates (3679, Corning Inc., Corning, N.Y.) and compared against a phosphate standard curve.
The kinetics of the steady state Ap3A/Ap4A cleavage by NPP4 was measured from time courses of absorbance change at 259 nm using a UV spectrophotometer with a 0.1 cm optical path length cuvette or a stopped-flow device with a 0.2 cm optical path length cell. The enzymology reactions in 50 mM Tris pH 8.0, 140 mM NaCl, 5 mM KCl, 1 mM MgCl2 and 1 mM CaCl2 were started by addition of 1 μM NPP4 to varying concentrations of Ap3A/Ap4A (up to 800 μM) solution (UV spectrophotometer) or by rapid mixing of NPP4 and Ap3A/Ap4A (stopped-flow). The substrate concentrations higher than 800 μM have absorption too high to be measured by a UV spectrophotometer and stopped-flow, and were therefore measured by HPLC. […] Therefore, the rate of a product production or enzyme turnover measured by the absorption change assay can be calculated by the rate of absorption change
[formula] according to the following formula;
[formula] where Δl is optical path length. The following absorption coefficients were used: Ap3A: 25.75 mM^−1 cm^−1. Ap4A: 25.4 mM^−1 cm^−1. […]
The HPLC protocol used to measure Ap3A/Ap4A cleavage by NPP4 and for product identification is modified from that of Stocchi et al. (1985, Anal Biochem 146:118-24). The reactions containing varying concentrations of Ap3A/Ap4A in the same buffer as in the absorbance change assay were started by addition of 0.2-1 μM NPP4 and quenched at various time points by equal volume of 3 M formic acid, or 0.5 N KOH and re-acidified by glacial acetic acid to pH 6. The quenched reaction solution was diluted systematically and loaded a HPLC system (Waters, Milford Mass.) and substrates and products were monitored by UV absorbance at 254 or 259 nm. […] The products and substrate were quantified according to the integration of their correspondent peaks and the formula: […]

B1: NPP4: soluble recombinant extracellular domain of human NPP4 (NCBI AAH18054.1, residues 1-407 of SEQ ID NO:1), expressed in insect cells (protein, listed as Homo sapiens)
chain: MKLLVILLFSGLITGFRSDSSSSLPPKLLLVSFDGFRADYLKNYEFPHLQNFIKEGVLVEHVKNVFITKTFPNHYSIVTGLYEESHGIVANSMYDAVTKKHFSDSNDKDPFWWNEAVPIWVTNQLQENRSSAAAMWPGTDVPIHDTISSYFMNYNSSVSFEERLNNITMWLNNSNPPVTFATLYWEEPDASGHKYGPEDKENMSRVLKKIDDLIGDLVQRLKMLGLWENLNVIITSDHGMTQCSQDRLINLDSCIDHSYYTLIDLSPVAAILPKINRTEVYNKLKNCSPHMNVYLKEDIPNRFYYQHNDRIQPIILVADEGWTIVLNESSQKLGDHGYDNSLPSMHPFLAAHGPAFHKGYKHSTINIVDIYPMMCHILGLKPHPNNGTFGHTKCLLVDQWCINLPEA
As for B1, the “maximum amplitude of aggregation” value in series [1] was “approximately 65%”. Also, the “effect on ADP-induced aggregation of NSAID-exposed platelets” value in series [2] was “normalization of ADP-induced aggregation”. In series [3] (linked alkaline phosphatase / malachite green assay), the “Ap4A cleavage (qualitative)” value is on record as “detected cleavage”. Also, the “maximum catalytic turnover rate (kcat) for Ap4A” value in series [3] (substrate Ap4A) is on record as about 1 s^−l. Further, the “kcat, Ap4A Hydrolysis by NPP4” value in series [3] (substrate Ap4A, steady state) came to 0.78 s^−1NPP4^−1. Also, the Km in series [3] (substrate Ap4A, steady state, read-out: KM, Ap4A Hydrolysis by NPP4) is 210 µM.

A word on the Km: it is the substrate concentration at which the rate is half of its maximum.
